Experimental data published in the RNAGym collection of RNA variant scans (doi:10.7554/elife.90254).

B1: OR4K15 (parent)
chain: GUUAACGGUCAUAGGCCAUGGAAACUAGGAGCACCAUUUCGCUGCCAGUGAAGAAAUGAACAAAGAAAAUCUGGGCCAGGCAGGCAUCAAAAGAAAUAGUCUUGCGCUCAACCAGAAAGUCUGUAAUCAUUUUAAGGGUA

Variants of: B1
Assay: self-cleavage, relative activity (ratio to wild type); higher = more cleavage; in vitro, sequencing; the parent is a self-cleaving ribozyme

| Variant | self-cleavage |
| --- | --- |
| GUUAACGGUCAUAGGCCAUGGAAACUAGGAGCACCAUUUCGCUGCCAGUGAAGAAAUGAACAAAGAAAAUCUGGGCCAGGCAGGCAUCAAAAGAAAUAGUCUUGCGCUCAACCAGAAAGUCUGUAAUCAUUUUUUGGGUA [A134U A135U] | 1.42 |
| GUUAACGGUCAUAGGCCAUGGAAACUAGGAGCACCAUUUCGCUGCCAGUGAAGAAAUGAACAAAGAAAAUCUGGGCCAGGCAGGCAUCAAAAGAAAUAGUCUUGCGCUCAACCAGAAAGUCUGUAAUCAUUUUAAGGAUU [G138A A140U] | 1.08 |
| GUUAACGGUCAUAGGCCAUGGAAACUAGGAGCACCAUUUCGCUGCCAGUGAAGAAAUGAACAAAGAAAAUCUGGGCCAGGCAGGCAUCAAAAGAAAUAGUCUUGCGCUCAACCAGAAAGUCUGUAAUCAUUUUAAGGAUA [G138A] | 0.93 |
| GUUAACGGUCAUAGGCCAUGGAAACUAGGAGCACCAUUUCGCUGCCAGUGAAGAAAUGAACAAAGAAAAUCUGGGCCAGGCAGGCAUCAAAAGAAAUAGUCUUGCGCUCAACCAGAAAGUCUGUAAUCAUUUUAAGGUUA [G138U] | 1.69 |
| GUUAACGGUCAUAGGCCAUGGAAACUAGGAGCACCAUUUCGCUGCCAGUGAAGAAAUGAACAAAGAAAAUCUGGGCCAGGCAGGCAUCAAAAGAAAUAGUCUUGCGCUCAACCAGAAAGUCUGUAAUCAUUUUAAGGCUA [G138C] | 1.73 |
| GUUAACGGUCAUAGGCCAUGGAAACUAGGAGCACCAUUUCGCUGCCAGUGAAGAAAUGAACAAAGAAAAUCUGGGCCAGGCAGGCAUCAAAAGAAAUAGUCUUGCGCUCAACCAGAAAGUCUGUAAUCAUUUUGUGGGUA [A134G A135U] | 0.3 |
| GUUAACGGUCAUAGGCCAUGGAAACUAGGAGCACCAUUUCGCUGCCAGUGAAGAAAUGAACAAAGAAAAUCUGGGCCAGGCAGGCAUCAAAAGAAAUAGUCUUGCGCUCAACCAGAAAGUCUGUAAUCAUUUUGCGGGUA [A134G A135C] | 1.54 |
| GUUAACGGUCAUAGGCCAUGGAAACUAGGAGCACCAUUUCGCUGCCAGUGAAGAAAUGAACAAAGAAAAUCUGGGCCAGGCAGGCAUCAAAAGAAAUAGUCUUGCGCUCAACCAGAAAGUCUGUAAUCAUUUUAGGGGUA [A135G] | 1.14 |
| GUUAACGGUCAUAGGCCAUGGAAACUAGGAGCACCAUUUCGCUGCCAGUGAAGAAAUGAACAAAGAAAAUCUGGGCCAGGCAGGCAUCAAAAGAAAUAGUCUUGCGCUCAACCAGAAAGUCUGUAAUCAUUUUACGGGUA [A135C] | 0.69 |
| GUUAACGGUCAUAGGCCAUGGAAACUAGGAGCACCAUUUCGCUGCCAGUGAAGAAAUGAACAAAGAAAAUCUGGGCCAGGCAGGCAUCAAAAGAAAUAGUCUUGCGCUCAACCAGAAAGUCUGUAAUCAUUUUAUGGGUA [A135U] | 1.47 |
| GUUAACGGUCAUAGGCCAUGGAAACUAGGAGCACCAUUUCGCUGCCAGUGAAGAAAUGAACAAAGAAAAUCUGGGCCAGGCAGGCAUCAAAAGAAAUAGUCUUGCGCUCAACCAGAAAGUCUGUAAUCAUUUUAAGUGUA [G137U] | 2.05 |
| GUUAACGGUCAUAGGCCAUGGAAACUAGGAGCACCAUUUCGCUGCCAGUGAAGAAAUGAACAAAGAAAAUCUGGGCCAGGCAGGCAUCAAAAGAAAUAGUCUUGCGCUCAACCAGAAAGUCUGUAAUCAUUUUAAGAGUA [G137A] | 1.12 |
| GUUAACGGUCAUAGGCCAUGGAAACUAGGAGCACCAUUUCGCUGCCAGUGAAGAAAUGAACAAAGAAAAUCUGGGCCAGGCAGGCAUCAAAAGAAAUAGUCUUGCGCUCAACCAGAAAGUCUGUAAUCAUUUUAAGCGUA [G137C] | 1.82 |
| GUUAACGGUCAUAGGCCAUGGAAACUAGGAGCACCAUUUCGCUGCCAGUGAAGAAAUGAACAAAGAAAAUCUGGGCCAGGCAGGCAUCAAAAGAAAUAGUCUUGCGCUCAACCAGAAAGUCUGUAAUCAUUUUAAGGGCG [U139C A140G] | 1.57 |
| GUUAACGGUCAUAGGCCAUGGAAACUAGGAGCACCAUUUCGCUGCCAGUGAAGAAAUGAACAAAGAAAAUCUGGGCCAGGCAGGCAUCAAAAGAAAUAGUCUUGCGCUCAACCAGAAAGUCUGUAAUCAUUUUAGGGGUG [A135G A140G] | 0.95 |
| GUUAACGGUCAUAGGCCAUGGAAACUAGGAGCACCAUUUCGCUGCCAGUGAAGAAAUGAACAAAGAAAAUCUGGGCCAGGCAGGCAUCAAAAGAAAUAGUCUUGCGCUCAACCAGAAAGUCUGUAAUCAUUUUAGGAGUA [A135G G137A] | 0.09 |
| GUUAACGGUCAUAGGCCAUGGAAACUAGGAGCACCAUUUCGCUGCCAGUGAAGAAAUGAACAAAGAAAAUCUGGGCCAGGCAGGCAUCAAAAGAAAUAGUCUUGCGCUCAACCAGAAAGUCUGUAAUCAUUUUAAGGGGU [U139G A140U] | 1.51 |
| GUUAACGGUCAUAGGCCAUGGAAACUAGGAGCACCAUUUCGCUGCCAGUGAAGAAAUGAACAAAGAAAAUCUGGGCCAGGCAGGCAUCAAAAGAAAUAGUCUUGCGCUCAACCAGAAAGUCUGUAAUCAUUUUUAGGGUA [A134U] | 1.26 |
